Results published in publication PMC10539340, “A common human MLKL polymorphism confers resistance to negative regulation by phosphorylation” (Nature Communications, 2023).

B1: Recombinant full-length human MLKL (residue 2-471), wild type (natural protein, UniProt Q8NB16 2-471, looked up)
chain: ENLKHIITLGQVIHKRCEEMKYCKKQCRRLGHRVLGLIKPLEMLQDQGKRSVPSEKLTTAMNRFKAALEEANGEIEKFSNRSNICRFLTASQDKILFKDVNRKLSDVWKELSLLLQVEQRMPVSPISQGASWAQEDQQDADEDRRAFQMLRRDNEKIEASLRRLEINMKEIKETLRQYLPPKCMQEIPQEQIKEIKKEQLSGSPWILLRENEVSTLYKGEYHRAPVAIKVFKKLQAGSIAIVRQTFNKEIKTMKKFESPNILRIFGICIDETVTPPQFSIVMEYCELGTLRELLDREKDLTLGKRMVLVLGAARGLYRLHHSEAPELHGKIRSSNFLVTQGYQVKLAGFELRKTQTSMSLGTTREKTDRVKSTAYLSPQELEDVFYQYDVKSEIYSFGIVLWEIATGDIPFQGCNSEKIRKLVAVKRQQEPLGEDCPSELREIIDECRAHDPSVRPSVDEILKKLSTFSK
notes: Bacmids were made from pFastBac Htb vectors; also called MLKL^WT; hMLKL; source: Sf21 insect cells, purified (glutathione agarose, size-exclusion chromatography)
B2: Recombinant full-length human MLKL (residue 2-471) S83D (natural protein, UniProt Q8NB16 2-471, looked up)
chain: ENLKHIITLGQVIHKRCEEMKYCKKQCRRLGHRVLGLIKPLEMLQDQGKRSVPSEKLTTAMNRFKAALEEANGEIEKFSNRDNICRFLTASQDKILFKDVNRKLSDVWKELSLLLQVEQRMPVSPISQGASWAQEDQQDADEDRRAFQMLRRDNEKIEASLRRLEINMKEIKETLRQYLPPKCMQEIPQEQIKEIKKEQLSGSPWILLRENEVSTLYKGEYHRAPVAIKVFKKLQAGSIAIVRQTFNKEIKTMKKFESPNILRIFGICIDETVTPPQFSIVMEYCELGTLRELLDREKDLTLGKRMVLVLGAARGLYRLHHSEAPELHGKIRSSNFLVTQGYQVKLAGFELRKTQTSMSLGTTREKTDRVKSTAYLSPQELEDVFYQYDVKSEIYSFGIVLWEIATGDIPFQGCNSEKIRKLVAVKRQQEPLGEDCPSELREIIDECRAHDPSVRPSVDEILKKLSTFSK
notes: human MLKL, residues 2-471, with the phosphomimetic S83D; Bacmids were made from pFastBac Htb vectors; also called MLKL^S83D; source: Sf21 insect cells, purified (glutathione agarose, size-exclusion chromatography)
B3: Recombinant full-length human MLKL (residue 2-471) S132P (natural protein, UniProt Q8NB16 2-471, looked up)
chain: ENLKHIITLGQVIHKRCEEMKYCKKQCRRLGHRVLGLIKPLEMLQDQGKRSVPSEKLTTAMNRFKAALEEANGEIEKFSNRSNICRFLTASQDKILFKDVNRKLSDVWKELSLLLQVEQRMPVSPISQGAPWAQEDQQDADEDRRAFQMLRRDNEKIEASLRRLEINMKEIKETLRQYLPPKCMQEIPQEQIKEIKKEQLSGSPWILLRENEVSTLYKGEYHRAPVAIKVFKKLQAGSIAIVRQTFNKEIKTMKKFESPNILRIFGICIDETVTPPQFSIVMEYCELGTLRELLDREKDLTLGKRMVLVLGAARGLYRLHHSEAPELHGKIRSSNFLVTQGYQVKLAGFELRKTQTSMSLGTTREKTDRVKSTAYLSPQELEDVFYQYDVKSEIYSFGIVLWEIATGDIPFQGCNSEKIRKLVAVKRQQEPLGEDCPSELREIIDECRAHDPSVRPSVDEILKKLSTFSK
notes: human MLKL, residues 2-471, with the natural polymorphism p.Ser132Pro; Bacmids were made from pFastBac Htb vectors; also called MLKL^S132P; p.Ser132Pro; source: Sf21 insect cells, purified (glutathione agarose, size-exclusion chromatography)
B4: Recombinant full-length human MLKL (residue 2-471) S83D,S132P (natural protein, UniProt Q8NB16 2-471, looked up)
chain: ENLKHIITLGQVIHKRCEEMKYCKKQCRRLGHRVLGLIKPLEMLQDQGKRSVPSEKLTTAMNRFKAALEEANGEIEKFSNRDNICRFLTASQDKILFKDVNRKLSDVWKELSLLLQVEQRMPVSPISQGAPWAQEDQQDADEDRRAFQMLRRDNEKIEASLRRLEINMKEIKETLRQYLPPKCMQEIPQEQIKEIKKEQLSGSPWILLRENEVSTLYKGEYHRAPVAIKVFKKLQAGSIAIVRQTFNKEIKTMKKFESPNILRIFGICIDETVTPPQFSIVMEYCELGTLRELLDREKDLTLGKRMVLVLGAARGLYRLHHSEAPELHGKIRSSNFLVTQGYQVKLAGFELRKTQTSMSLGTTREKTDRVKSTAYLSPQELEDVFYQYDVKSEIYSFGIVLWEIATGDIPFQGCNSEKIRKLVAVKRQQEPLGEDCPSELREIIDECRAHDPSVRPSVDEILKKLSTFSK
notes: human MLKL, residues 2-471, compound mutant of the phosphomimetic S83D and the polymorphism S132P; Bacmids were made from pFastBac Htb vectors; also called MLKL^(S83D, S132P); MLKL^S83D,S132P; source: Sf21 insect cells, purified (glutathione agarose, size-exclusion chromatography)

Target: the molecule itself
Assay: SEC; HiLoad 16/600 Superdex 200 pg column after glutathione agarose; fractions at elution volume 55-63 ml taken as tetramers and pooled

Stoichiometry N, 4:
B1, B2, B3, B4
